Assay results published in paper PMC5437018.
Like-named read-outs stand apart in the source and are kept apart here.

How the values were obtained:
[1] = target: Recombinant purified α-isoform of mammalian PP1 (residues 1–330), tag cleaved (mammalian) (UniProt P62136); assay: SPR; Biacore 3000; PP1 covalently coupled to a CM5 chip; Rif1 CRI, mutants and peptide injected at 20 µl/min in 10 mM Tris-HCl pH 7.5, 250 mM NaCl, 1 mM DTT, 2 mM MnCl2, 0.005% Tween 20; 1:1 binding model
PP1 (Homo sapiens) [2] = target: PP1 (Homo sapiens) (UniProt P62136); settings: cited from earlier work
Sequence of PP1 (Homo sapiens) (P62136 2-330): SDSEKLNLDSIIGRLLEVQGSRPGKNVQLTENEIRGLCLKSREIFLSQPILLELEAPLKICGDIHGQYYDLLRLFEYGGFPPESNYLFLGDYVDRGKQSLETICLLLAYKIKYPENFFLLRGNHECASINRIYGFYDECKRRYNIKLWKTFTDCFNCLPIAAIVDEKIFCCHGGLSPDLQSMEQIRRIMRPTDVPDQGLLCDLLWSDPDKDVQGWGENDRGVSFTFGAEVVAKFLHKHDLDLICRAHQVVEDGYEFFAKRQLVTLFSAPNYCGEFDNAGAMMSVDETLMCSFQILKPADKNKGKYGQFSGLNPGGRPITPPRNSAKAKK

PP1 (Homo sapiens) [3] = target: PP1 (Homo sapiens) (UniProt P62136); settings: cited from earlier work; remark: listed apart in the source
PP1 (Homo sapiens) [4] = target: PP1 (Homo sapiens) (UniProt P62136); settings: cited from earlier work; remark: listed apart in the source
PP1 (Homo sapiens) [5] = target: PP1 (Homo sapiens) (UniProt P62136); settings: cited from earlier work; remark: listed apart in the source

Sequence of Recombinant purified α-isoform of mammalian PP1 (residues 1–330), tag cleaved (mammalian) (P62136 whole entry, the tested form may be a part, canonical isoform): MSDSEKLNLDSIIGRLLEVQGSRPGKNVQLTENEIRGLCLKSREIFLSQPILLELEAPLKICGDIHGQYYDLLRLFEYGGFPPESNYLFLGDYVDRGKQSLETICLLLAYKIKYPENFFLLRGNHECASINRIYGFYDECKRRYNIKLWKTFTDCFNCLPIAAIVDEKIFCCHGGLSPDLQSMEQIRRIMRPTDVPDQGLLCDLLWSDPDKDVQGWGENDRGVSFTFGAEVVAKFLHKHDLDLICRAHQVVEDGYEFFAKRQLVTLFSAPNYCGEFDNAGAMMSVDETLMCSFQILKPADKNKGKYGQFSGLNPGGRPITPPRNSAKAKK
Sequence of PNUTS (Q96QC0 whole entry): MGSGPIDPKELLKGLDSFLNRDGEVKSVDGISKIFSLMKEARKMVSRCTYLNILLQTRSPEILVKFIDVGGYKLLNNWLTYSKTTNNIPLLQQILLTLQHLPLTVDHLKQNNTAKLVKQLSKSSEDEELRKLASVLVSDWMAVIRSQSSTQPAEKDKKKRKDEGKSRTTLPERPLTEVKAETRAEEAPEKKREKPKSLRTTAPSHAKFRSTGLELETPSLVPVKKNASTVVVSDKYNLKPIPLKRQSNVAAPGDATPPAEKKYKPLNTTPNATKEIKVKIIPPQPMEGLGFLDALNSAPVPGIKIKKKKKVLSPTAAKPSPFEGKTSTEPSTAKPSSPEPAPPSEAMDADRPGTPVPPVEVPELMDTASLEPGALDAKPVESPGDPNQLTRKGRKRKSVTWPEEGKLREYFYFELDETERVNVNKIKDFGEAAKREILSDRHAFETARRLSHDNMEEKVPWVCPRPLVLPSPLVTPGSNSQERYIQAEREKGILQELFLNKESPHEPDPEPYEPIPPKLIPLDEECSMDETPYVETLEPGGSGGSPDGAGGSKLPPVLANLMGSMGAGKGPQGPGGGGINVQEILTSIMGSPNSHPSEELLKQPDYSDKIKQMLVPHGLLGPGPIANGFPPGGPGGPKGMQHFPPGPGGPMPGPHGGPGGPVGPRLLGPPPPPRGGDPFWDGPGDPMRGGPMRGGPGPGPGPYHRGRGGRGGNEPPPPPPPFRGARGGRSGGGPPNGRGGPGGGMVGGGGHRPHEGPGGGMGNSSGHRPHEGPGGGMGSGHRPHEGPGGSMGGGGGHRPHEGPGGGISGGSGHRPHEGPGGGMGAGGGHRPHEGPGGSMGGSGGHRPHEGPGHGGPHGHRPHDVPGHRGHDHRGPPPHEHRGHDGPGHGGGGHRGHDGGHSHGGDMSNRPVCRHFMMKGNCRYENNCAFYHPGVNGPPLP
Sequence of GADD34 (O75807 whole entry): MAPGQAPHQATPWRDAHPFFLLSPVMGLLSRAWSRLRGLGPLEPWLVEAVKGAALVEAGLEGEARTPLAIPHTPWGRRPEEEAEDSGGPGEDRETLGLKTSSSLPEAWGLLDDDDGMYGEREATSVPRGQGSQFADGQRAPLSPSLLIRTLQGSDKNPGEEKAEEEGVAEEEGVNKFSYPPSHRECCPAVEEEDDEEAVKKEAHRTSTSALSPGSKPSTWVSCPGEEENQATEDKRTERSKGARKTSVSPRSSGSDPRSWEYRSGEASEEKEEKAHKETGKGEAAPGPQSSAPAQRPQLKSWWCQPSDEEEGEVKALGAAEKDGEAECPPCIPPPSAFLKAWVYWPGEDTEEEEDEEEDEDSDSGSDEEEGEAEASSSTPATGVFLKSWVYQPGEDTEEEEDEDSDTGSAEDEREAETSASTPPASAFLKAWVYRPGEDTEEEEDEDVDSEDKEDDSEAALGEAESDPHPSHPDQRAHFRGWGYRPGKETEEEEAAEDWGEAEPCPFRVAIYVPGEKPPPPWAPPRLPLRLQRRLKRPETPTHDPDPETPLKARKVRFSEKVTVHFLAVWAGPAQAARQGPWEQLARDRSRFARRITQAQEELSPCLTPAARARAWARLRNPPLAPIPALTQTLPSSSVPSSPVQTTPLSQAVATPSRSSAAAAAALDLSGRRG
Sequence of spinophilin (O35274 417-494): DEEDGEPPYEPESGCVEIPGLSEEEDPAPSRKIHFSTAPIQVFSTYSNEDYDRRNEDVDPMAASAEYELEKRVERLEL
Sequence of NIPP1 (Q12972 whole entry): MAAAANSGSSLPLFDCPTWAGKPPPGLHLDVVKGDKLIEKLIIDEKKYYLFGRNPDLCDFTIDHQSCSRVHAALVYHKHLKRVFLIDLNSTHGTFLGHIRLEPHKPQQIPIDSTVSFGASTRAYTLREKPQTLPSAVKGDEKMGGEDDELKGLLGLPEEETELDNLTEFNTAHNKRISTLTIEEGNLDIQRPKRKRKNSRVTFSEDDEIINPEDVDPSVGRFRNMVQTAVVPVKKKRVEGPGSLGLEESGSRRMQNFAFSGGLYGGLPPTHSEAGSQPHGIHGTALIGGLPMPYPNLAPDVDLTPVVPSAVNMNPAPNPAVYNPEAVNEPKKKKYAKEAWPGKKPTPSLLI

## Rif1 CRI (2093–2190) RVSF to RASF (from UniProt Q6PR54 2093-2190) (domain or fragment)
[1]
  fold decrease in affinity against wild type: 20 fold

## NIPP1 (from UniProt Q12972)
PP1 (Homo sapiens) [2]
  Kd: 0.073 µM

## PNUTS (from UniProt Q96QC0)
PP1 (Homo sapiens) [3]
  Kd: 0.0087 µM

## Rif1 CRI (2093–2190) RVSF to RVSA (from UniProt Q6PR54 2093-2190) (domain or fragment)
[1]
  affinity as percent of the wild-type interaction: < 0.1%

## GADD34 (from UniProt O75807)
PP1 (Homo sapiens) [4]
  Kd: 0.062 µM

## Rif1 CRI (2093–2190) SILK to SAAA (from UniProt Q6PR54 2093-2190) (domain or fragment)
[1]
  fold decrease in affinity against wild type: 20 fold

## spinophilin (from UniProt O35274)
PP1 (Homo sapiens) [5]
  Kd: 0.0093 µM
